Columns and labels:
[1] = molecular target: elongation factor 2 (EF2) (UniProt P55823)
[2] = molecular target: elongation factor 2 (EF2) (rabbit) (UniProt P55823); assay: cell-based or functional assay

Row | Substance | Relative IVTT score (ratio (IC50 WT / IC50 mutant)) [1] | inhibition of transcription/translation of T7-luc plasmid (IVTT) [2]
1 | DT382 V28S | 3.61 | –
2 | control DT(ΔR), truncated DT comprising the C and I domains only (from UniProt P00588 33-414) (enzyme) | – | 90%

Source: patent US20090010966A1
